The DeepSol protein solubility set

experiment: soluble on expression in E. coli; label from the status in PepcDB or PDB records

Soluble on expression in E. coli, not soluble:
MGSDKIHHHHHHMGKLVVQGGAVLEGEVEISGSKNAALPIMAAAILCDEEVILKNVPRLQDVFVMIDILRSIGFRVEFEENELKIKRENDISQEVPYELVRKMRASFNVLGPIAVRTGRAKVALPGGCSIGVRPVDFHLEGLKKMGFSIKVEHGFVEACFERRIDYVTITLPFPSVGATEHLMTTAALLKGARVVIENAAMEPEIVDLQNFINRMGGHIEGAGTSRIVIEGVEKMQGVEYSIIPDRIEAGTYLVAIAASRGKGLVKNVNPDHLTNFFEKLEETGAKLKVLGNEVEIEMRERPKAVDVTTNPYPGFPTDLQPQMMAYLSTASGVSVITENVFKTRFLHVDELKRMGADIEVSGNVAIVKGVEKLSGAPVEGTDLRATAALLIAGIIADGVTEISNVEHIFRGYEDVIDKFSELGAKIEYVEKEN, MGSDKIHHHHHHMGKSKRKILNWKQYNQALVNRGSVTFWLDKSAINAWHCKAHHGGRGRGFQFSDTAIETALMLKGVFKLSLRATEGFINSLFRLMDVPLAAPDYTCISKRAKTVEVKYRNPCRGPVTHLVVDSTGLKVYGEGEWKTRKHGKERRRTWRKLHLAIDADTHDVVSAEVSLVNVADNEVLPTMLNPLRRKVNQVSADGAYDTKECHKLLRHKGAKPTIPPRSNAGYWEDGHPRNEAVEALKSGTLKQWKDDNDYHQRSLSETAMYRYKQLISSKLSLRDYNAQVGEALAGVKAMNKVIGLGMPVRQTTA, MGSDKIHHHHHHMGNILWVASYPKSGNTWVRAFLENYIQNQAQPIDINTMHTISTAESAAHRYQHYLPKDKTATTELTLEEVSVLRPQVQADIAHQANGTTFVKTHNYLGEYNGHPLHNSSVTSGAIYVVRNPLDVAISMANYFGYSIDEAIAYMAEEMTGTPNEAPHVPQIITSWSMHVSSWTADDASKLILRYEDMLDDPKKVFRKVESFLGLKKDPVRLKNAIKHSSFAQLKAQETKLGFVEKHENANAFFRNGGKHQWKTKLTPEQVQKIVATHYEQMKRFKYLPAGM, MGSDKIHHHHHHMGNRRGFLKMSASLAAAPLIPESSAVSNELDIPVSNKRPHELARDEAHWRAVGRLYSIQEEIINLEHGYWGQMSIPVEQALARHTHRVNRELSWYARREYDRDFLKARAAVADALGVSVEELMLTRNATESFVNLITQYDELSSGNAILWADADYPEFKRMMSWLAESRQVRGTMLSLPAAGTDEDYIRIYREAFDALPDLKLMLLTHVSNQHGLVLPVREIAAIAKCRGIHVICDCAQSWGLLDFTLDDLNVDWAVFNLHKWIGSPVGVGALYMRHGTLVPVRPFPGEDSSDTDVANRVHLATSDFASFLTVPDALAFHRAIGGANKQARLNYLREAWVASLEGSSAVEVLGATGSKNASGMGAFRLRGQTSKVQVSALQTRLETEFRIFTVVRNDLASGACIRVTPQVFTPLEHVQALADAIVEISVTG, MGSDKIHHHHHHMGQKVHPRGFRLGLSADWQAKWFNEKNYKEWLLEDEEIRKIIKNKYYHAGISEIYVERPDAERINITVKTARPGIIIGRKGSEITSLREELERKFNRRVVINIEEIKTPELDAQLVAESIASRIEKRASYKVAMKRAIMNAMRKGAQGIKVMVAGRLGGAEIARREWYLRGRLPLQKIKAIIDYGTATAWTKYGTIGIKVWIYKGDADI, MGSDKIHHHHHHMGQSEVNFYQQEVVELLKQVIEPNLKNDIVSLGMVRNLRIVDDYVYLRLYIGSHQQQLQTEVEAKLSALSWCKKTYIQICTIPGVKITLGISSGKGGVGKSTTAVNIAAALSLQGAKVGLLDADVYGPNVPQMLGLGQADVEVIQTPTGEKFLPLEVQGIKLMSVGLLAEENRPLAWRGPVLHKIITQFINDVEWGELDYLLIDLPPGTGDAQITIIQESPICGVILVTTPQQVAVADVRRNIYMFRQVGVPVLGIVENMSYLICGDCGSRTYIFGSGGGEQLATELQAPLLGQIPIDQRICSGGDSGNPIAISEQTSPASEVFRNIAIAIGLSFP, MGSDKIHHHHHHMGRYLERTEHISRFSQAHYFFSIDAPKSVKKEHILESVLNMAGSYVEYLGSGNKMETMEVAYYIGLNEFNASSIKHSIVKARENARGAKDSISSELWQSINTFYHSINLMDRATFNEMGIYEFSKNVLQNSSVIKGNIDNTLLHEEAWSIIHLGQHIERTTQVIRMIVTKINDINRIPKKEYYNMIELFENVNLLKSTEAYDMSKIFYREVPSVSHSLEFLTLNRNFPKSIVYNLRHIEHCLLRITNLSKHETNSLEFYASKLLCTVKYTSIQDIEKEPLAFYNDLLNKVAKLADMLETKYLQY, MGSDKIHHHHHHMGSYPDGKRIFVKMNTSPILPGLAREQIAPQLLWSRRLADGRDMCAQEWLTGKILTPYDMNRKQIVNILTRLHRSRPLMTQLSRLGYAMETPVDLLQSWQETAPDALRKNHFISEVMADLRQTIPGFREDHATIVHGDVRHSNWIETDSGLIYLVDWDSVRLTDRMFDVAHMLCHYISEHQWKEWLTYYGYKYNQTVLSKLYWYGQLSYLSQISKYYMNQDLENVNREIHGLRHFRDKYGKRR, MGSDKIHHHHHHMGTRLDILMIHSNLPLLNMLWAHITDELERLDKMLNRFDATSEVSKLNSHTQQDSVSVSAELEDILRSCQYYYEKTLHLFDITLNDFSQIQIHGNHHISFSNFSVTLDFGGFAKGYALKKIQEILLRGNIENAFVDFGNSSIMGIGHHPYGDCWKVSLQNPYTQQTLDEFCLTDNTLSTSGNTEQYTGHIINPLTGIYNEQKKVTSILSDNPLDAEILSTVWMIADDQQREQINENFKHIKGTIYTL, MGSDKIHHHHHHMGVFLDKSIKEVVDELNGRYFLPDIQREYVWLQNADGKKIEQLFDSILRGYPIGFFLFWKLPKEDIAKSDEQDSDKLNFQLYQFITNYDERKPHNEKIRIEQIKRDDLYIVLDGQQRLTSLYIGLKGTRTLKKKNARYDNPNAYEEKRLYLNLKHQPNMDNPEDNYEFEFHAQKPENDKKHWWFKVGDILESESHVWNYADEHGLKGNELKLLGDLHRAFHTKQLVSFFEETEKNLNKVLNIFIRVNSGGVKLSYSDLLMSILTASFSSDIREKMNELVDALKDKGFSNMG, MGSDKIHHHHHHMHAVSHLASKDAQSNASPQVALIAEGGGQRGIFTAGVLDAWLDGGFDPFDLFIGTSAGSQNLSSFLARQKGYAKRLIRGLSRHKRFYRLGRGLVGGNVVDLDWYFEQTRQGMFKLDLNAATASLGHRQLLITTTNASDRKGYFLSPSSKSQWRELLKASSALPFLYKQGVKLTPWLNDNACNSDKACNNGAANHGGSHHSAALSEAIDSDFYLDGGLAAPLPVREAYRRGARKIVVIRTVSEDFQAQSAWVHKLKSWICVSGFCPKTIDYLVQHEQAYQDELDFIANPPEDVEIVQIFAAENLQSKLLGSTDADLRHDYHAGMNAGKQFLTQDPMALTQMNVHFQTQVQTNAHTQTHIQALSQIKPFSALSA, MGSDKIHHHHHHMHFNAPSYPKQWFDTKSAGTPVVILTGMGCSYEEWYEVIQSLRPAHRILSFHRHSWKEGDGIHRTGHAIQQLQTLLSGSNVDEPILLIGHSYGGLIAQEFTKLFPERIKGLILVDSTSVDLHELDALDTPVLDAVSSDAAWQALCRDYAIKTKEQLKQLLQPVLTGAQKRLPQAVQDALVDFQTEPDLYAMMDSEVEHWKTDAARIRTGPFPDVPLIVIGRDPELSIQDGINDGLPEDELRQVEETWHRLVLRQATLTKQADFITATGAGHAIHLDRPDLVISAVTKLDVT, MGSDKIHHHHHHMHFYTARQPILNRRQRVVAYELLFRDSYKNCFPVDVPDKVATAKLLVNSFLSMDIEDMTDGKPALINFPTSLLKEHLVHILPYKNLVIEVLETVEPNDDNFAILKQLFDSGYHLALDDFIYSPAWDRFLPLFKLIKIDIVATPLDTIAHILPKLKQKKTRLLAEKVETQADFLHAKALGFDYFQGYFFYKPEIVKGNEVELSQPFLMSIYTEVMKPSFSYRKLEAYFTQDMDLSYKLLRFVNSSYFSHVKDIISLKQAMIFLGENQLRKFVCLIVMAQLNPDKPQILIQNTMLRARLCEVIAKVMKLNKLADAAFLTGLFSTLDAILDKPMEKVLHSLPLAPEINNALLHQQGELAECLALAIAYMQGNWEFVSEFVSRNHINAGELTRRCNQVYLWLSEYQRSSSSKA, MGSDKIHHHHHHMHHDLVDVLIIEDESELARLHAELVQKHPRLRLAGMAASLAQARQLLHATPPQLVLLDNYLPDGKGVTLMTDPALATSQCSVIFITAASDMETCSQAIRNGAFDYILKPVSWKRLSQSLERFIQFYDQQREWKIVDQQNVDSLYQLQAKNYRVDSGSKGIEEKTLALVQGLFSDREAHCFSVDEVVSAAGLSKTTARRYLEHGVETGFLEVEMLYGKIGHPRRLYRRAKVKS, MGSDKIHHHHHHMHNEIVTGNVLPFNIFEKADSKLLAWIRDVSVVREITTSCRLIEEGSTPDGLFVVESGAITVCTKQADGGSLSLASLKVGNLVGEMSWLEERPAVASIDAGPGSRLLQIPREALESINQSEAFICHLLYRLIAEKLALQVQGQNIWVHRIAGTDQEPLRKVLVLFAELEEKDVAWIARSGKFKRLVAGDVLLQEGDNVPGLYLLLAGEARISITENGSWQSVGSSRRGELLGELTMLNPQAAGATANVDTVTGLELLVLDKEELSMTLNADPRLAKRFYKGIARMLSQRSRDQLLSRGFAEASRIAEELIDNEQLGLDQLSAISSAGLRFDWLCRQFQDKEG, MGSDKIHHHHHHMHVIKAKDDYTYRHTVGVSILSRLIGTWLKLDEVILKELTLGAVLHDIGKVEIPDAILNKPGALTKDEYRIIQDHTVKGYRIIQESGIYSDTVALMALEHHEREDGTGYPYQKTRNEIHLLSKILAVADVFHAMTSDRIYRKGMALYDVLLQMRQDRFGKLEPRITDFFVRRFMEQCIGSKARLNDGSRVEIVFIPYENPICPIVKQGTNYIDLRMSPLYIQELIPVTVKV, MGSDKIHHHHHHMIDFIISIDDCAVELDSRQSWKIRYPLSTILFLVFVCQLAGIETWKEMEDFIEMNEPLFATYVDLSEGCPSHDTLERVISLVNSDRLKELKVQFEQSLTSLDAVHQLISVDGKTIRGNRGKNQKPVHIVTAYDGGHHLSLGQVAVEEKSNEIVAIPQLLRTIDIRKSIVTIDAMGTQTAIVDTIIKGKADYCLAVKGNQETLYDDIALYFSDVNLLEELQENAQYYQTVEKSRGQIEVREYWVSSDIKWLCQNHPKWHKLRGIGMTRNTIDKDGQLSQENRYFIFSFKPDVLTFANCVRGHWQIESMHWLLDVVYHEDHHQTLDKRAAFNLNLIRKMCLYFLKVMVFPKKDLSYRRKQRYISVHLEDYLVQLFGERG, MGSDKIHHHHHHMIDVENILEKMKPNQKINYDWVMQQMVKQWQASDIRPKILMHVCCAPCSTYTLEYLSQWADVTIYFANSNIHPKDEYYRREYVTQKFVHDFNKNTGYSVQFLSAPYEPNEFFKIVHGLEEEPEGGDRCKVCYDFRLDKTAEKAVELGFDYFGSALTISPHKNSQTINTIGIDVQKIYDTQYLPSDLKKNKGYQRSVEMCKDYDIYRQCYCGCIFGAKDQGINLLQIKKDAKAFVSDKDGKEEFPNIRFTFNGKSM
